Measurements taken from publication doi:10.1101/2020.09.30.318972 (bioRxiv, 2020).

Target: soluble prefusion-stabilized trimeric SARS-CoV-2 spike protein (SARS-CoV-2, Wuhan-Hu-1 (MN908947.3), UniProt P0DTC2, stabilised)
Assay: cryo-EM structure

B1: LY-CoV555 Fab (Fab, V domains shown)
VH: QVQLVQSGAEVKKPGSSVKVSCKASGGTFSNYAISWVRQAPGQGLEWMGRIIPILGIANYAQKFQGRVTITADKSTSTAYMELSSLRSEDTAVYYCARGYYEARHYYYYYAMDVWGQGTAVTVSS
VL: not shown
- binding result: binds
